Columns and labels:
[1] = biological target: T1, Recombinant human PD-1 (Sino Biological Inc., Catalog Number 10377-H08H) (human, UniProt Q15116 25-167); test: ELISA, coated recombinant human PD-1 (1 ug/mL), detection with anti-human IgG-HRP, OD450nm
T1 construct: Bought protein; also called antigen PD-1
Method: (§1) Recombinant human PD-1 (purchased from Sino Biological Inc.) was coated on a 96-well high-absorbing ELISA plate with a carbonate buffer solution with pH 9.6, the coating concentration was 1 μg/mL, the coating amount was 100 μL per well, and the coating was carried out at 4° C. overnight. The plate was washed five times with PBST and blocked with 300 μL/well of PBST containing 1% BSA, and then incubated at 25° C. for 1 hour. The plate was washed five times with PBST. […] The plate was washed five times with PBST. Then, horseradish peroxidase-labeled anti-human IgG antibody (Chemicon, Catalog Number AP309P) 1:2000 diluted in PBST containing 1% BSA was added, 100 μL per well, incubated at 25° C. for 1 hour. The plate was washed five times with PBST. 100 μL/well of colorimetric substrate TMB was added and incubated at room temperature for 10 minutes. Color development was terminated by adding 100 μL/well of 1 M H₂SO₄. The absorbance at 450 nm was read on a microplate reader.

[2] = biological target: T1, Recombinant human PD-1 (Sino Biological …); test: species specificity ELISA, coated recombinant human PD-1 (1 ug/mL), anti-human IgG-HRP, OD450nm
Method: Recombinant human PD-1, monkey PD-1, rat PD-1 and mouse PD-1 (all purchased from Sino Biological Inc.), were coated on a 96-well high-absorbing ELISA plate with a carbonate buffer solution with pH 9.6, the coating concentration was 1 μg/mL, the coating amount was 100 μL per well, and the coating was carried out at 4° C. overnight. The plate was washed five times with PBST and blocked with 300 μL/well of PBST containing 1% BSA, and then incubated at 25° C. for 1 hour. The plate was washed five times with PBST. […] The plate was washed five times with PBST. Then, horseradish peroxidase-labeled anti-human IgG antibody (Chemicon, Catalog Number AP309P) 1:2000 diluted in PBST containing 1% BSA was added, 100 μL per well, incubated at 25° C. for 1 hour. The plate was washed five times with PBST. 100 μL/well of colorimetric substrate TMB was added and incubated at room temperature for 10 minutes. Color development was terminated by adding 100 μL/well of 1 M H₂SO₄: The absorbance at 450 nm was read on a microplate reader.

[3] = biological target: T1, Recombinant human PD-1 (Sino Biological …); test: SPR (Biacore X100), antibody captured on anti-human IgG CM5 chip, PD-1 as analyte
Method: The instrument utilizes an optical surface plasmon resonance technique to detect association and dissociation between a molecule coupled on a sensor chip and an analyte. CM5 chips (GE Healthcare, BR-1000-12) were used. […] In the association phase, the antigen PD-1 was diluted to multiple concentrations with a running buffer, and injected at a rate of 30 μL/min for 180 seconds. In the dissociation phase, the duration of the dissociation was 1200 seconds. Glycine solution (GE Healthcare, BR-1003-54) was used to regenerate for 30 seconds at a speed of 10 μL/min. […] Association rate constant and dissociation rate constant were analyzed and calculated by Biacore X100 evaluation software.

[4] = biological target: T2, Recombinant human ICOS (Sino Biological Inc.) (human, UniProt Q9Y6W8 21-141); test: binding specificity ELISA, coated recombinant human ICOS, anti-human IgG-HRP
T2 sequence (looked up): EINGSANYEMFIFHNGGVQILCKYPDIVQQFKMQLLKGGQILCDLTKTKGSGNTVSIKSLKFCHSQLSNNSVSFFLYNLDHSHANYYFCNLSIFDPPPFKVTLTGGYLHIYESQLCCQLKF
Method: as §1, with “The” for “Recombinant human PD-1 (purchased from Sino Biological Inc.) was coated on a 96-well high-absorbing ELISA plate with a carbonate buffer solution with pH 9.6, the coating concentration was 1 μg/mL, the coating amount was 100 μL per well, and the coating was carried out at 4° C. overnight. The”, “1% BSA” for “1% BSA,”, “and” for “and then”, “μL was added to each” for “μL per”

[5] = biological target: T3, Recombinant human B7-H2 (Sino Biological Inc.) (human, UniProt O75144 19-256, limits assumed); test: binding specificity ELISA, coated recombinant human B7-H2, anti-human IgG-HRP
T3 sequence (looked up): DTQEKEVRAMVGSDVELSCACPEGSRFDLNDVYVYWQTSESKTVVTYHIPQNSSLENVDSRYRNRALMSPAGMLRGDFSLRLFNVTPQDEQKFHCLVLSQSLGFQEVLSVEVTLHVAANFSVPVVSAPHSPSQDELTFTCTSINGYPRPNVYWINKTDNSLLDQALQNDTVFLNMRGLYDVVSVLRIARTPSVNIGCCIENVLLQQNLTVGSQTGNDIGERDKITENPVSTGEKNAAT
Method: as §1, with “The” for “Recombinant human PD-1 (purchased from Sino Biological Inc.) was coated on a 96-well high-absorbing ELISA plate with a carbonate buffer solution with pH 9.6, the coating concentration was 1 μg/mL, the coating amount was 100 μL per well, and the coating was carried out at 4° C. overnight. The”, “1% BSA” for “1% BSA,”, “and” for “and then”, “μL was added to each” for “μL per”

[6] = biological target: T4, Recombinant human PD-1-Fc (human, UniProt Q15116 25-167, limits assumed); test: competition ELISA, PD-1-Fc coated, competitor biotin-labeled PD-L1
T4 construct: also called recombinant human PD-1-Fc protein; not shown: Fc part
T4 sequence (Q15116 25-167 limits assumed): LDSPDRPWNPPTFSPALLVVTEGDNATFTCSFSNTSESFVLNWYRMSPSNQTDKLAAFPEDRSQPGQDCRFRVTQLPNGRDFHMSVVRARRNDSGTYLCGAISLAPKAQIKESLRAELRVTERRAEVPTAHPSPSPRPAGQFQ
Method: Recombinant human PD-1-Fc was coated on a 96-well high-absorbing ELISA plate with a carbonate buffer solution with pH 9.6, the coating concentration was 1 μg/mL, the coating amount was 100 μL per well, and the coating was carried at 4° C. out overnight. The plate was washed five times with PBST and blocked with 300 μL/well of PBST containing 1% BSA and incubated at 25° C. for 1 hour. The plate was washed five times with PBST. The positive control and the anti-human PD-1 antibody sample were added, 50 μL per well. […] The plate was washed five times with PBST. Then, Streptavidin-HRP (BD Pharmingen, Catalog Number 554066) 1:1000 diluted in PBST containing 1% BSA was added, 100 μL per well, incubated at 25° C. for 1 hour. The plate was washed five times with PBST. 100 μL/well of colorimetric substrate TMB was added and incubated at room temperature for 10 minutes. Color development was terminated by adding 100 μL/well of 1 M H₂SO₄. The absorbance at 450 nm was read on a microplate reader.

T1 sequence (Q15116 25-167 limits assumed): as above

B1: anti-human PD-1 chimeric monoclonal antibody (antibody, human IgG4 S228P, kappa, V domains shown)
VH: EVQLQESGGGLVKPGGSLKLSCAASGFTFSSYGMSWVRQTPEKRLEWVASISGGGRYTYYPDSMKGRFTISRDNAKNNLHLQMSSLRSEDTALYYCVYEYFYTMDYWGQGTSVTVSS
VL: DIVLTQSPATLSVTPGDSVSLSCRANQSISNNLHWYQQRSHESPRLLIRFASQSISGIPSRFSGSGSGTDFTLSINSVETEDFGMYFCQQSDNWPLTFGAGTKLEIKR
notes: expressed in 293F cells; also called Anti-human PD-1 Chimeric Antibody; chimeric anti-human PD-1 monoclonal antibody
B1 showed an EC50 [1] of 92 pM, an EC50 [2] of 92 pM and a Kd [3] of 1370 pM. For the same binder, the koff [3] was 0.000295 s⁻¹, the kon [3] was 215000 M⁻¹ s⁻¹ and the binding result [4] was “no binding”. For the same binder, the binding result [5] was “no binding” and the IC50 [6] was 1450 pM.

From US20190367615A1 (BEIJING HANMI PHARM, published 2019)
